The text below walks through data of article PMC3742539, “ε Subunit of Bacillus subtilis F1-ATPase Relieves MgADP Inhibition” (PLoS ONE, 2013).

The target of the experiment is T1, γ^S3C subunit of BF1 (Bacillus subtilis, UniProt P37810 1-287, S3C).
T1 construct: F1-ATPase γ subunit, Bacillus subtilis, with γSer3 to Cys; Stood in the assay as a subunit of the α3β3γ^S3C complex, never isolated alone; source: E. coli BL21(DE3), co-expressed with α and His6-β, purified as part of the α3β3γ^S3C complex
In words: cross-linking; disulfide cross-linking without ATP: α3β3γ^S3C and ε^133C mixed 1:10, excess ε removed by ultrafiltration (100-kDa cutoff), 50 µM CuCl2, 1 h, 25 °C, 50 mM Tris-H2SO4 pH 7.5, 50 mM K2SO4; non-reducing SDS-PAGE. To be noted: both partners purified.

B1: mutant BF1 ε subunit (133C, a Cys introduced at the C-terminus) (natural protein, Bacillus subtilis, UniProt P37812 1-132, looked up)
chain: MKTVKVNIVTPDGPVYDADIEMVSVRAESGDLGILPGHIPTVAPLKIGAVRLKKDGQTEMVAVSGGFVEVRPDHVTILAQAAETAEGIDKERAEAARQRAQERLNSQSDDTDIRRAELALQRALNRLDVAGKC
Consider B1, for which the binding result is recorded as “binds”.
